The series is described as follows: yeast display, Sf9 membrane polyspecificity reagent, FACS + sequencing; frameworks hold sequencing errors. The gist of the method: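 Synthetic nanobody libraries on Saccharomyces cerevisiae BJ5465 were galactose-induced for 36–48 hours, stained 1 hour at 4 °C with 10% biotinylated, detergent-solubilized Sf9 membrane reagent and enriched on streptavidin microbeads. FACS then separated cells into low and high (top ~1%) gates by anti-HA (expression) and streptavidin (reagent binding) fluorescence. Genes were colony-PCR amplified, MiSeq 2 × 250 sequenced and CDR-length filtered. A clone's polyreactivity label is that of its gate of origin.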
“QVQLVESGGGLVQAGGILRLSCAASGRIFHWYAMGWYRQAPGKERELVDAITDGYSTYYADSVNGRYKISRDNAKNTVYLQMNSLKPEETAVYYCAADVGYSPYVFGVTRYYKYDYWGQGTQVTVSS”: the “polyreactivity (PSR sort gate)” value is recorded as “low polyreactivity”.
Turning to “QVQLVESGGGLVQAGGSLRLSCAASGSTFRRNAMGWYRQAPGKERELVAAISAGGGSTYYADSVKGRFTISRDNAKNTVYLQMNSLKPEDTAVYYCNVAGSGVRRMGYWGQGTQVTVSS”, the “polyreactivity (PSR sort gate)” value is listed as “high polyreactivity”.
Consider “QVQLVESGGGLVQAGGSLRLSCAASGRTISYAMGWYRQAPGKERELVAAIRYRGGSTYYADSVKGRFTISRDNAKNTVYLQMNSLKPEDTADYYCDAQDSYTPPILFRRGYLRYDYWGQGTQVTVSS”, for which the “polyreactivity (PSR sort gate)” value is on record as “low polyreactivity”.
Then “QVQLVESGGGLVQAGGSLRLSCDASGRIYGYNAIAWYRQAPGKERELVAAITNGGSTNYADSVKGRFTISRDNAKNTVFLQMNSLKPDETAVYYCAVKWYAPGHDYWGQGTQVTVSS”, with “low polyreactivity”; and “QVQLVESGGGLVQAGGSLRLICAASGIIFSDYAMGWYRQAPGKERELVAAITGGGSTYYADSVKGRFTISRDNAKNTVYLQMNSLKPEDTAVYYCNADTWGFTYYYWGQGTQVTVSS”, with “low polyreactivity”; and “QVQLVESGGGKVQAGGSLRLSCAASGFTFSNAMGWYRQAPGKERELVAAITRIGGSTFYADSVKGRFTISRDNAKNTVYLQLNSLKPEDTAVYSCAADYGLPLYEGYYWGQGTQVTVSS”, with “low polyreactivity”.
Then “QVQLEESGGGLVQAGGSLRLSCAASGSIFYQYDMGWYRQAPGKERELVAAITQRGGRTYYADSVKGRFTISRDNAKNTVDLKMNSLKPELTAVYYCAADNDSYWGYVYWGQGTQVTVSS”, with “high polyreactivity”; and “QVQLVESGGGLVQAGGSLRLSCAASGSTFAYYTMGWYRQAPGKERELVAAITSGGRTTYADSVKGRFTISRDNAKNTVYLQMNSLKPEDTAVYYCAKGRKPGYYYWGQGTQVTVSS”, with “high polyreactivity”.
Then “QVQLVESGGGLVQAGGSLRLSCAASGFILDYNAMGWYRQAPGKERELVATITGRGDRTYYADSVKGRFTISRDNAKNTVYLQMNSLKPEDTAVYYCAAAYLIYSDYGPAMDYWGQGTQVTVSS”, with “low polyreactivity”; and “QVQLVESGGGLVQAGGSLRLSCAASGSIFYRYAMGWYREAPGKERELVAAISSSGGSTYYADSVKGRFTISRDNAKNTVYSQMNSLKPEDTAVYYCNTDRYYTYDYWGQGTQVTVSS”, with “low polyreactivity”; and “QVQLVESGGGLVQAGGSLRLSCAASGRIFKVNAMVWYRQPPGKERELVAAIRWSGGSTYYADSVKGRFTISRDNAKNTVYLQMNSLKPEDTAVFYCAATWSRRFDYWGQGSQVTVSS”, with “low polyreactivity”.
As to “QVQLVESGGGLVQAGGSLRLSCAASGIIFDDYALGWYRPAPGKVRELVAAINSNGGTTYYADSVKGRFTISRDNAKNTVYLQMNSLKPEDTAVYYCAARPYRIGRYGYDYDYWGQGTQVTVSS”, the “polyreactivity (PSR sort gate)” value is on record as “high polyreactivity”.
Then “QDQLVESGGGLVQAGGSLRLSCAASGLTFKRNAMGWYRQAPVKERELVAAIRYSTDSTNYADSVKGRFTISRDNAKNTVYLQLNSMNPEDTAVYYCAKDKQDYEYWGQGTQVTVSS”, with “low polyreactivity”.
For “QVQLVESGGGLVQAGGSLRLSCAASGSTFVIYGMGWYRQAPGTERELVADITWIGGSTYYADSVKGRFTISRDNAKNTVYLQMNSLKPEDTAVYYCNADVRYGRDHWGQGTQVTVSS”, the “polyreactivity (PSR sort gate)” value is listed as “low polyreactivity”.
Then “QVQLVESGGGLVQAGGSLRLSCAASGSTVDANAMGWYRPAPGKERELVATISDGGSTNYADSVKGRFTISRDNAKKTVYVQKNSLKPEDTAVYYCAAVKLFLGLGYDYWGQGTQVTVSS”, with “low polyreactivity”; and “QVQLVESGGGLVQAGGSLRLSCAASGRIFSYYAMGWYRKAPGKERELVAAITSAGGTNYAVSVKGRFTISRDNAKITVYLQMNSLKPEDTAVYYCAADSSVLQNYYRYRYPYVTYNYWGQGTQVTVSS”, with “low polyreactivity”.
Then “QVQLVESGGGLVQAGGSLRLSSAASGFIFDFYTMGWYRQAPGKERELVAAITWSGDSTYYADSVKGRFTISRDNAKNTVYLQMNSLKPEDTAVYYCASDLSYNPGYDYWGQGTQVTVSS”, with “low polyreactivity”; and “QVQLVESWGGLVQAGGSLRLSCAASGFIFQTNVMGWYRQAPGKERELVAAISSGDSTYYADSVKGRFTISRDNAKNTVYLQMNSLKPEDTAVYYCAADVLGTTTTVGGFNYWGQGTQVTVSS”, with “low polyreactivity”.
Then “QVQLVESGGGLVQAGGSLRLSCAASGRTFTVNPMGWYRQAPGKERELVAAITSGGTTKYADSVKGRFTISRDNAKNTVYLQMNSLKPEDTAVYYCAARVYFPVQYPWFYFEYGYWGQGTQVTVSS”, with “high polyreactivity”.
As for “QVQLVESGGGLVQAGGSLRLSCAHSGSISSRYAMGWYRQAPGKERELVARITRSGGSTYYADSVKGRFTISRDNAKNTVYLQMNRLKPEDTAVYYCNKRGTEIGYDYWGQGTQVTVLS”, the “polyreactivity (PSR sort gate)” value was “low polyreactivity”.
Turning to “QVQLVESGGGLVQAGGSLRLSCAASGSIFPYNVMGWYRQAPGKERELVAAISTRGGRTYYADSVKGRFTISRDNAKNTVYLQMNSLNPEDTAVYYCATAGGPYSASGYYWGQGTKVTVSS”, the “polyreactivity (PSR sort gate)” value was “high polyreactivity”.
On to “QVQLVESGGCLVQAGGSLRLSCAASGRIFAYNAMGWYRQAPGKESELVAAITRGGSTNYADSVKGRFTISRDNAKNTVYLQMNSLKPEDTAVYYCAARRVDTRVHVRYRYYYWGQGTQVTVSS”, for which the “polyreactivity (PSR sort gate)” value is on record as “high polyreactivity”.
Turning to “QVQLVESGGGLVQAVGSLRLSCDASGLTFNSNAMGWYIQAHGKDRELVATISRGGTTNYADSVKGRFTISRDNAKNTVYLQMNSLKPEDTAVYYCNALRGSRYDYWGQGTQVTVSS”, the “polyreactivity (PSR sort gate)” value is reported as “high polyreactivity”.
Then “QVQLVESGGGLVQAGRSLRLSCAASGSIFGFYAMGCYRQAPGKERELVAASTVSDGTTYYADSVKGRFTISRDNAKNSFFFLMNSVKPEDTVVYYCAGDVFRQHEYYYWGQGTQVTVSS”, with “low polyreactivity”.
Then “QVQLVESGGGLVQAGGSLRLSCAASGRIFGLYAMGWYRQATGKERELVAAISSSGGRTYYADSVKGRFTISRDNAKNTVYLQMNSLKPEDTAVYYCAAVYYYRRDGNGYWGQGTQVTVSS”, with “high polyreactivity”.
Then “QVQLVESGGGLVQAGGSLRLSCAASGSIFSPYAMGWYRQAPGKERELVAAISFRASTTYYADSVKGRFTISRDNAKNTVYLQMNSLKPEDTAVYYCAASPLYSWFWGLYDYWGQGTQVTVSS”, with “low polyreactivity”; and “QVQLVESGGGLVQAGGSLRLSCAASGFTFKWYTMGWYRPAPGKERELVAGISRRGGSTYYADSVKGRFTISRDNAKNTVYLQMNSLKPEDTAVYYCARRFLYPYDHWGQGTQVTVSS”, with “high polyreactivity”.
Consider “QVQLVESGGGLVQAGGSLRLSCAASGSILVPYAMGWYRQAPGKERELVAAISIRTGSTYYADSVKGRFTISRDNAKNTVYLQMNSLKPEDTAVYYCNAAHRKPYTGLNYWGQGTQVTVSS”, for which the “polyreactivity (PSR sort gate)” value is given as “high polyreactivity”.
Then “QVQLVESGGGLVQPGGSLRLSCAASGRTIGVYAMGWYRQAPGKERELVAAITTSGDSTYYADSVKGRFTISRDNAKNTVYLQMNSLKPEDTAVYYCAADYYYVYSSFGHYYWGQGTQVTVSS”, with “low polyreactivity”; and “QVQLVESGGGLVQAGCSLRLSCAATGCSFKYNTMGWYRQAPGKERELVAAITSGGGSTYYADSVKGRFTISRDNAKNTVYLPMNRLKPEDTAVYYCAAYRRNTYWGQGTQVTVSA”, with “high polyreactivity”; and “QVQLVESGGGLVQAGGSLRLSCAASGRTISWYVMGWYRQAPGKERELVAAISWNGGRTYYADSVKGRFTISRDNAKNTVYLQMNSLKPEDTAVYYCAAKNYHGYPFDYWGQGTQVTVSS”, with “high polyreactivity”.
Then “QVQLVESGGGLVQAGGSLRLSCAASGFTFEYNAMGGYRQDPGKERELVAAITTTGSTYYADSVKGRFTISRDNAKNTVYLQMNSLKPEDTAVYYCAADPVWRGYSYQFDYWGQGTQVTVSS”, with “low polyreactivity”; and “QVQLVESGGGLVQAGGSLRLSCAASGSTLVKYAMGWYRQAPGKERELVAAISWSGGRTYYADSVKGRFTISRDNAKNTVYLQMNSLKPEDTAVYYCAARSTRFYTPGYYYWGQGTQVTVSS”, with “high polyreactivity”.
With “QVQLVESGGGLVQAGGSLRLSCAASGRIFVPYAMGWYRQAPGKVREFVAAISYRGGSTYYADSVKGRFTISRDNAKNTVYLQMNSLKPEDTAVYYCAKVIPYRGKVTLDYWGQGTQVTVSS”, the “polyreactivity (PSR sort gate)” value was “low polyreactivity”.
Then “QVQLVESGGGLVQAGGSLRLSCAASGLTFGPYAMGWYRQAPGKERELVAAITSGGYTNYADSVKGRFTISRDNAMNTVYLQMNSLKPEDTAVYFCATSYYLAYRSITPYDYWGQGTQVTVSS”, with “low polyreactivity”.
Then “QVQLVESGGVLVQAGGSLRLSCAASGSTFSYYTMGWYRQAPGKERELVATISKRGGTTSYADSVKGRFTISRDNAKNTVYLQMNSLKPEDTAVYYCAARYSKVHYAYDYWGQGTQVTVSS”, with “high polyreactivity”.
Then “QGQLVESGGGIVQAGGSLRLSCSASGLTYGTNAKGLYRQAPRQERELVAAISRSGGTTYYADSVKWRFTISRDNAKNTVDLQMNSLKPEDTAVYYCATRPYSPWRHYFWGQGTQVTVSS”, with “high polyreactivity”; and “QVQLVESGGGLVQAGGSLRLSCAASGLTFSRNAMGWYRRAAGKERELVAAITKSGARTYYADSVKGRFTISRDNAKNTVYLQMNSLKPEDTAVYYCAADALNTYYYWGQGTQVTVSS”, with “high polyreactivity”.
For “QVQLVESGGGLVQAGGSLRLSCAASGFTFFYNAMGWYRQAPGKEREFVAAISGRGGTTYYADSVKGRFTISRDNAKNTVYLQMNSLKPEDTAVYYCAARSVSTLRYTSRKLRYDYWGQGTQVTVSS”, the “polyreactivity (PSR sort gate)” value is on record as “high polyreactivity”.
Then “QVQLVESGGGLVQAGGSLRLSCAASGRIFTDNAMGWYRQEPGKERELVAAIRGSGSSTYYADSVKGRFTISRDNAKNTVYLQMNSLKPEDTAVYYCAARRAVYRGNYWGQGTQVTVSS”, with “high polyreactivity”; and “QVQLVESGGGLVQAGGSLRLSCAASGSTSSVMLWMGWYRQAPGKEREFVAGISWIDATTYYADSVKGRFTISRDNAKNTVYLQMNSLKPEDTAVYYCAADVRWLWYWYGRYDYWGQGTQVTVSS”, with “high polyreactivity”.

The values above are taken from the nanobody polyreactivity screen of Harvey et al. (2022).
